Laboratory results as given in publication PMC4072685, “Galactose Oxidase from Fusarium oxysporum - Expression in E. coli and P. pastoris and Biochemical Characterization” (PLoS ONE, 2014).

Columns and labels:
[1] = test system: CO[C@@H]1O[C@H](CO)[C@H](O)[C@H](O)[C@H]1O; assay: purified protein; conditions: apparent constant, co-substrate O2 (air), 20 mM potassium phosphate pH 7.0, 30°C, Cu2+-activated enzyme
[2] = test system: CO[C@H]1O[C@H](CO)[C@H](O)[C@H](O)[C@H]1O; assay: purified protein; conditions: apparent constant, co-substrate O2 (air), 20 mM potassium phosphate pH 7.0, 30°C, Cu2+-activated enzyme
[3] = test system: OC[C@H]1O[C@H](OC[C@H]2O[C@H](O[C@]3(CO)O[C@H](CO)[C@@H](O)[C@@H]3O)[C@H](O)[C@@H](O)[C@@H]2O)[C@H](O)[C@@H](O)[C@H]1O; assay: purified protein; conditions: apparent constant, co-substrate O2 (air), 20 mM potassium phosphate pH 7.0, 30°C, Cu2+-activated enzyme
[4] = molecular target: T1, GalOx (galactose 6-oxidase from Fusarium oxysporum G12) (Fusarium oxysporum, UniProt V5NQ89); assay: ABTS/horseradish peroxidase coupled assay, […] nm, Michaelis-Menten fit; conditions: apparent constant; co-substrate O2 (air); 20 mM potassium phosphate pH 7.0, 30°C; Cu2+-activated enzyme
T1 construct: gene gao
T1 sequence (V5NQ89 40-681 limits assumed): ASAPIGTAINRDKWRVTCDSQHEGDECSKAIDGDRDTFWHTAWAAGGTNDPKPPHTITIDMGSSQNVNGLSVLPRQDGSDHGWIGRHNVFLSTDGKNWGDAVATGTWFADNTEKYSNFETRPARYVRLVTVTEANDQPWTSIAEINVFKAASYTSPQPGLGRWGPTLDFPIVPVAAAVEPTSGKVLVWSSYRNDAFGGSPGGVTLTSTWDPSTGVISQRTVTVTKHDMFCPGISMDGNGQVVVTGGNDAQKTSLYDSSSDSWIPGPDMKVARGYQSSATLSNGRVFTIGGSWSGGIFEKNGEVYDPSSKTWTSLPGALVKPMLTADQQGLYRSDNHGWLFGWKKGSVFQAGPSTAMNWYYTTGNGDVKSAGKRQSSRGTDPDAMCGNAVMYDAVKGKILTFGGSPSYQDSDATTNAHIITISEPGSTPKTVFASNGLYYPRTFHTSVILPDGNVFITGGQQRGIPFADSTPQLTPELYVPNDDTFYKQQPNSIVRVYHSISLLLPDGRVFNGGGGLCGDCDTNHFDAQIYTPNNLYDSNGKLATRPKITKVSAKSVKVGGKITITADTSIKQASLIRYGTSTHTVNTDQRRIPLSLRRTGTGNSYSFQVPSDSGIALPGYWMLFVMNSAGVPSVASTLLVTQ

Row | Compound | Km [1] | Vmax [1] | kcat [1] | kcat/Km [1] | Km [2] | Vmax [2] | kcat [2] | kcat/Km [2] | Km [3] | Vmax [3] | kcat [3] | kcat/Km [3] | Km [4]
1 | GalOx (galactose 6-oxidase from Fusarium oxysporum G12) (Fusarium oxysporum) | 45 mM | 81 µmol/min/mg | 99 s⁻¹ | 2200 M⁻¹ s⁻¹ | 41 mM | 47 µmol/min/mg | 57 s⁻¹ | 1400 M⁻¹ s⁻¹ | 23 mM | 23 µmol/min/mg | 28 s⁻¹ | 1200 M⁻¹ s⁻¹ | 
2 | OC[C@H]1OC(O)[C@H](O)[C@@H](O)[C@H]1O (stereo partly drawn) [D-galactose] |  |  |  |  |  |  |  |  |  |  |  |  | 47 mM
